# Laboratory results taken from paper PMC5040351 (Arteriosclerosis, thrombosis, and vascular biology, 2016).
# B1: cytoplasmic tail of calnexin (CNX-CT), recombinant (domain or fragment, UniProt P27824 503-592, looked up)
# chain: CSGKKQTSGMEYKKTDAPQPDVKEEEEEKEEEKDKGDEEEEGEEKLEEKQKSDAEEDGGTVSQEEEDRKPKAEEDEILNRSPRNRKPRRE
# Legend:
# [1] = biological target: HA-tagged calnexin with deletion of the lumenal repeat segment (CNXΔ276-409) (UniProt P27824); assay: co-IP
# [2] = biological target: ABCA1-FLAG (ATP-Binding Cassette A1 cholesterol transporter, FLAG-tagged) (UniProt O95477); assay: co-IP
# [3] = biological target: endogenous calnexin (CNX) (human (endogenous in HEK293T and HeLa)) (UniProt P27824); assay: co-IP
# [4] = biological target: myristoylated NefSF2 protein (HIV-1 SF2, UniProt P03407 1-210, myristoylated); assay: SPR
molecule,measurement,setting,value
HIV-1 Nef expressed from the Nef_(cons) vector (wild type) (natural protein),percent reduction of co-precipitated Nef against WT CNX,[1],40%
"Nef K4,7A (double lysine mutant of Nef_(cons)) (natural protein)",percent reduction of co-precipitated Nef against wild-type Nef,[2],30%
Nef K4A (single lysine mutant of Nef_(cons)) (natural protein),percent reduction of co-precipitated Nef against WT Nef,[3],80%
Nef K7A (single lysine mutant of Nef_(cons)) (natural protein),percent reduction of co-precipitated Nef against WT Nef,[3],70%
B1,Kd,[4],9.4 nM
same,koff,[4],0.00857 s⁻¹
same,kon,[4],908000 M⁻¹ s⁻¹
